What was measured:
[1] = target: dTBCE-GFP expressed in Drosophila embryos (Drosophila melanogaster) (UniProt A1Z6J5); test: fluorescence microscopy of beads
[2] = target: dTBCE^mutCG-GFP expressed in Drosophila embryos (Drosophila melanogaster) (UniProt A1Z6J5); test: fluorescence microscopy of beads

mean fluorescence intensity in the tubulin-rhodamine channel [1]: 25.9 a.u. | mean fluorescence intensity in the tubulin-rhodamine channel [2]: 4.7 a.u.
Substance: bovine brain tubulin supplemented with 25 % of tubulin-rhodamin (from UniProt Q6B856 1-445) (complex)

Source: paper doi:10.1101/2020.01.21.912428
